Legend:
Assay in all cases: cell-based or functional assay
[1] = biological target: HIV-1 Env of pseudovirus MGRM-AG-011 (clade CRF_AG) (HIV-1)
[2] = biological target: HIV-1 Env of pseudovirus MGRM-AE-008 (clade CRF01_AE) (HIV-1)
[3] = biological target: HIV-1 Env of pseudovirus MGRM-G-019 (HIV-1, clade G isolate MGRM-G-019)
[4] = biological target: HIV-1 Env of isolate MGRM-D-029 (clade D pseudovirus) (HIV-1)
[5] = biological target: HIV-1 Env of isolate TRO.11 (Acute), clade B, on pseudovirus (HIV-1)
[6] = biological target: HIV-1 envelope glycoprotein (Env) of isolate 92RW009, clade A (HIV-1)
[7] = biological target: HIV-1 envelope glycoprotein (Env) of isolate 92UG031, clade A (HIV-1)
[8] = biological target: HIV-1 Env of pseudovirus MGRM-AG-013 (clade CRF_AG) (HIV-1)
[9] = biological target: HIV-1 Env of pseudovirus MGRM-F1-006 (HIV-1)
[10] = biological target: HIV-1 envelope glycoprotein (Env) of isolate 93UG077, clade A (HIV-1)
[11] = biological target: HIV-1 Env of pseudovirus MGRM-G-004 (clade G) (HIV-1)
[12] = biological target: HIV-1 Env of isolate LAVIC_18 (HIV-1)
[13] = biological target: HIV-1 Env of isolate 92RW021 (clade A pseudovirus) (HIV-1)
[14] = biological target: aMLV envelope protein on pseudovirus (negative control)
[15] = biological target: HIV-1 Env of pseudovirus MGRM-AE-001 (clade CRF01_AE) (HIV-1)
[16] = biological target: HIV-1 Env of pseudovirus MGRM-F1-010 (HIV-1)
[17] = biological target: HIV-1 Env of isolate NL43 (subtype B pseudovirus) (HIV-1)
[18] = biological target: HIV-1 Env of isolate MGRM-F1-016 (HIV-1)
[19] = biological target: HIV-1 Env of isolate MGRM-Chronic-B-004 (subtype B pseudovirus) (HIV-1)
[20] = biological target: HIV-1 Env of isolate MGRM-Chronic-B-012 (subtype B pseudovirus) (HIV-1)
[21] = biological target: HIV-1 Env of isolate APV_13 (subtype B pseudovirus) (HIV-1)
[22] = biological target: HIV-1 Env of isolate MGRM-D-024 (pseudovirus) (HIV-1)
[23] = biological target: HIV-1 Env of isolate MGRM-D-013 (pseudovirus) (HIV-1)
[24] = biological target: HIV-1 APV13 Env (pseudovirus) (HIV-1)
[25] = biological target: HIV-1 Env of isolate MGRM-AG-012 (HIV-1)
[26] = biological target: HIV-1 Env of isolate MGRM-D-003 (pseudovirus) (HIV-1)
[27] = biological target: HIV-1 MGRM-AG-005 Env (pseudovirus) (HIV-1)
[28] = biological target: HIV-1 Env of isolate MGRM-Chronic-B-023 (subtype B pseudovirus) (HIV-1)
[29] = biological target: HIV-1 Env of isolate MGRM-F1-013 (HIV-1)
[30] = biological target: HIV-1 APV13 Env (pseudovirus, clade B) (HIV-1)
[31] = biological target: HIV-1 Env of isolate MGRM-D-020 (pseudovirus) (HIV-1)

1443_C16 (PG16) (TCN-116) (antibody), sequence (VH): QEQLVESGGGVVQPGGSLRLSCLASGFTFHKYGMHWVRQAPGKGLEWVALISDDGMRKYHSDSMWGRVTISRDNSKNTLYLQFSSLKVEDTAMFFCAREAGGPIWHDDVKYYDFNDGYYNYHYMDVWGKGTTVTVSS
1443_C16 (PG16) (TCN-116) (antibody), sequence (VL): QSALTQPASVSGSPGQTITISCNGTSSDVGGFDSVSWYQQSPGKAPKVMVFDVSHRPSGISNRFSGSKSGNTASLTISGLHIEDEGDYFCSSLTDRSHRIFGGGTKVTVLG

Substance | IC50 [1] | IC50 [2] | IC50 (µg/ml), pseudovirus neutralization [3] | IC50 (µg/ml), pseudovirus neutralization [4] | IC50 (µg/ml), pseudovirus neutralization [5] | IC50 (µg/ml), pseudovirus neutralization [6] | IC50 (µg/ml), pseudovirus neutralization [7] | IC50 [8] | IC50 (µg/ml), pseudovirus neutralization [9] | IC50 (µg/ml), pseudovirus neutralization [10] | IC50 [11] | IC50 [12] | IC50 (µg/ml), pseudovirus neutralization [13] | IC90 (pseudovirus neutralization) [14] | IC50 [15] | IC50 (µg/ml), pseudovirus neutralization [16] | IC50 (µg/mL), pseudovirus neutralization [17] | IC50 (µg/mL), pseudovirus neutralization [18] | IC50 (µg/mL), pseudovirus neutralization [19] | IC50 (µg/mL), pseudovirus neutralization [20] | further results
2G12 (antibody) | > 50 µg/mL | > 50 µg/mL | 31 µg/mL | > 50 µg/mL | 0.29 µg/mL | 26.1 µg/mL | > 50 µg/mL | 0.95 µg/mL | > 50 µg/mL | > 50 µg/mL | > 50 µg/mL | > 50 µg/mL | > 50 µg/mL | > 50 µg/mL | > 50 µg/mL |  |  |  |  |  | 
1443_C16 (PG16) (TCN-116) (antibody) | 0.002 µg/mL | 3.25 µg/mL | 1.21 µg/mL | > 50 µg/mL | 0.22 µg/mL | 0.11 µg/mL | 0.43 µg/mL | 0.31 µg/mL | 0.27 µg/mL | > 50 µg/mL | > 50 µg/mL | 0.02 µg/mL | 0.11 µg/mL | > 50 µg/mL | 4.33 µg/mL | 0.01 µg/mL |  |  |  |  | 
2F5 (antibody) | > 50 µg/mL | > 50 µg/mL | > 50 µg/mL | > 50 µg/mL | > 50 µg/mL | 39.1 µg/mL | 3.81 µg/mL | 1.79 µg/mL | 1.1 µg/mL | 3.3 µg/mL | > 50 µg/mL | > 50 µg/mL | 4.16 µg/mL | > 50 µg/mL | 0.29 µg/mL | 14.6 µg/mL |  |  |  |  | 
4E10 (antibody) | 1.36 µg/mL | 0.94 µg/mL | 6.53 µg/mL | 5.3 µg/mL | 1.39 µg/mL | > 50 µg/mL | 4.94 µg/mL | 2.61 µg/mL | 1.01 µg/mL | 10.6 µg/mL | 1.47 µg/mL | > 50 µg/mL | 4.87 µg/mL | > 50 µg/mL | 0.85 µg/mL | 3.69 µg/mL |  |  |  |  | 
5141_B17 (PGT-126) (antibody) |  |  |  |  |  |  |  |  |  |  |  |  |  | > 10 µg/mL |  |  | > 50 µg/mL | > 50 µg/mL | 0.01 µg/mL | 0.027 µg/mL | IC50 (µg/mL), pseudovirus neutralization [21]: 0.012 µg/mL; IC50, pseudovirus neutralization [22]: 0.376 µg/mL; IC50, pseudovirus neutralization [23]: > 50 µg/mL; neutralization IC50 (pseudovirus) [24]: 0.012 µg/mL; IC50 [25]: > 50 µg/mL; IC50, pseudovirus neutralization [26]: 0.021 µg/mL; neutralization IC50 (pseudovirus) [27]: 1.35 µg/mL; IC50 (µg/mL), pseudovirus neutralization [28]: > 50 µg/mL; IC50, pseudovirus neutralization [14]: > 10 µg/mL; IC80 (pseudovirus neutralization) [14]: > 10 µg/mL; IC95 (pseudovirus neutralization) [14]: > 10 µg/mL; IC50 (µg/mL), pseudovirus neutralization [29]: > 50 µg/mL; IC50 neutralization [30]: 0.012 µg/mL; IC50, pseudovirus neutralization [31]: 0.023 µg/mL
4858_P08 (PGT-123) (antibody) |  |  |  |  |  |  |  |  |  |  |  |  |  |  |  |  | > 50 µg/mL | 4.95 µg/mL | 0.008 µg/mL | 0.227 µg/mL | IC50 (µg/mL), pseudovirus neutralization [21]: 0.138 µg/mL; IC50, pseudovirus neutralization [22]: 0.023 µg/mL; IC50, pseudovirus neutralization [23]: > 50 µg/mL; neutralization IC50 (pseudovirus) [24]: 0.222 µg/mL; IC50 [25]: > 50 µg/mL; IC50, pseudovirus neutralization [26]: 3.74 µg/mL; neutralization IC50 (pseudovirus) [27]: 0.104 µg/mL; IC50 (µg/mL), pseudovirus neutralization [28]: 0.055 µg/mL; IC50 (µg/mL), pseudovirus neutralization [29]: 0.08 µg/mL; IC50 neutralization [30]: 0.222 µg/mL; IC50, pseudovirus neutralization [31]: 0.018 µg/mL
4877_D15 (PGT-122) (antibody) |  |  |  |  |  |  |  |  |  |  |  |  |  |  |  |  | > 50 µg/mL | 4.81 µg/mL | 0.008 µg/mL | 0.066 µg/mL | IC50 (µg/mL), pseudovirus neutralization [21]: 0.778 µg/mL; IC50, pseudovirus neutralization [22]: 0.185 µg/mL; IC50, pseudovirus neutralization [23]: > 50 µg/mL; neutralization IC50 (pseudovirus) [24]: 0.992 µg/mL; IC50 [25]: > 50 µg/mL; IC50, pseudovirus neutralization [26]: > 50 µg/mL; neutralization IC50 (pseudovirus) [27]: > 10 µg/mL; IC50 (µg/mL), pseudovirus neutralization [28]: 0.01 µg/mL; IC50 (µg/mL), pseudovirus neutralization [29]: 0.152 µg/mL; IC50 neutralization [30]: 0.992 µg/mL; IC50, pseudovirus neutralization [31]: 0.007 µg/mL
b12 (antibody) | > 50 µg/mL | > 50 µg/mL | 3.77 µg/mL | > 50 µg/mL | > 50 µg/mL | > 50 µg/mL | > 50 µg/mL | > 50 µg/mL | > 50 µg/mL | 47 µg/mL | > 50 µg/mL | > 50 µg/mL | > 50 µg/mL | > 50 µg/mL | 25.9 µg/mL | > 50 µg/mL |  |  |  |  | 
1495_C14 (PGC14) (antibody) | > 50 µg/mL | > 50 µg/mL | > 50 µg/mL | > 50 µg/mL | > 50 µg/mL | > 50 µg/mL | > 50 µg/mL | > 50 µg/mL | > 50 µg/mL | > 50 µg/mL | > 50 µg/mL | > 50 µg/mL | > 50 µg/mL |  | > 50 µg/mL | > 50 µg/mL |  |  |  |  | 
